According to US20180243437A1 (published 2018):

B5: human VEGFR-2/Fc (R&D Systems) (Fc fusion)
chain: ASVGLPSVSLDLPRLSIQKDILTIKANTTLQITCRGQRDLDWLWPNNQSGSEQRVEVTECSDGLFCKTLTIPKVIGNDTGAYKCFYRETDLASVIYVYVQDYRSPFIASVSDQHGVVYITENKNKTVVIPCLGSISNLNVSLCARYPEKRFVPDGNRISWDSKKGFTIPSYMISYAGMVFCEAKINDESYQSIMYIVVVVGYRIYDVVLSPSHGIELSVGEKLVLNCTARTELNVGIDFNWEYPSSKHQHKKLVNRDLKTQSGSEMKKFLSTLTIDGVTRSDQGLYTCAASSGLMTKKNSTFVRVHEKPFVAFGSGMESLVEATVGERVRIPAKYLGYPPPEIKWYKNGIPLESNHTIKAGHVLTIMEVSERDTGNYTVILTNPISKEKQSHVVSLVVYVPPQIGEKSLISPVDSYQYGTTQTLTCTVYAIPPPHHIHWYWQLEEECANEPSQAVSVTNPYPCEEWRSVEDFQGGNKIEVNKNQFALIEGKNKTVSTLVIQAANVSALYKCEAVNKVGRGERVISFHVTRGPEITLQPDMQPTEQESVSLWCTADRSTFENLTWYKLGPQPLPIHVGELPTPVCKNLDTLWKLNATMFSNSTNDILIMELKNASLQDQGDYVCLAQDRKTKKRHCVVRQLTVLERVAPTITGNLENQTTSIGESIEVSCTASGNPPPQIMWFKDNETLVEDSGIVLKDGNRNLTIRRVRKEDEGLYTCQACSVLGCAKVEAFFIIEGAQEKTNLE
notes: Bought protein; also called recombinant VEGFR2/Fc; not shown: Fc part; It is captured by goat anti-human IgG-Fc in the ELISA

Tests used:
[1] = target: T1, mouse VEGFR-2/Fc (R&D Systems) (mouse, UniProt P35918 20-762); experiment: SPR (Biacore 3000), immobilized mouse VEGFR-2/Fc
T1 construct: Bought protein; also called immobilized mouse VEGFR-2/Fc; not shown: Fc part, not described
T1 sequence (P35918 20-762 limits assumed): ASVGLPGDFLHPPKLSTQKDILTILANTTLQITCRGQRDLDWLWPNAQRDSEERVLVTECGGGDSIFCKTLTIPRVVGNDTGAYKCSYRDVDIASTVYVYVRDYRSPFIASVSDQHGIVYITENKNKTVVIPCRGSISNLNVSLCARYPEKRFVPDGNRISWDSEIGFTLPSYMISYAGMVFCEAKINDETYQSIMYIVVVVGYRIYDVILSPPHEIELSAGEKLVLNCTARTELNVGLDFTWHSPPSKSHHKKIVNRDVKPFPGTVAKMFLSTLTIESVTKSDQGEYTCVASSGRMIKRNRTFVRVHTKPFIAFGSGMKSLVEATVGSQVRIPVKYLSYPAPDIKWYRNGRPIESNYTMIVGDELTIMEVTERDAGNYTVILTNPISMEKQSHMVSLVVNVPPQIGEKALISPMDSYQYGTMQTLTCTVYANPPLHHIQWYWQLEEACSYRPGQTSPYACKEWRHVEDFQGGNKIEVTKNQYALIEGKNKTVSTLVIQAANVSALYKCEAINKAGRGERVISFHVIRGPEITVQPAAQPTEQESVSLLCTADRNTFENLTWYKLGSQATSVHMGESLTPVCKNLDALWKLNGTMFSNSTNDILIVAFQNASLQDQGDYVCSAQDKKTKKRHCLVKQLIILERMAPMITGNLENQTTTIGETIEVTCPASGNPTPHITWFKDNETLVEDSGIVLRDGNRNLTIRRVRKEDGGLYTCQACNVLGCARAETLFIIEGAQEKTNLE

[2] = target: B5; experiment: SPR (Biacore 3000), immobilized human VEGFR-2/Fc
[3] = target: T2, human VEGFR2 (KDR) expressed on 293/KDR cells (human, UniProt P35968 20-1356); experiment: flow cytometry on 293/KDR cells (FIG. 13B)
[4] = target: B5; experiment: ELISA on recombinant VEGFR2/Fc, absorbance at 405 nm
[5] = target: T2, human VEGFR2 (KDR) expressed on 293/KDR …; experiment: flow cytometry on 293/KDR cells, S/N against biotin-isotype control
[6] = target: B5; experiment: ELISA, captured recombinant VEGFR2/Fc, biotin-V21H4 (FIG. 13A); antibody alone, not conjugate
[7] = target: B5; experiment: SPR (Biacore 3000), immobilized human VEGFR-2/Fc; estimated from transformed data (FIG. 3)
[8] = target: V21H4-DOS47 (V21H4, SEQ ID NO:6, conjugated to jack bean urease through BM(PEG)2) (jack bean (Canavalia ensiformis), UniProt P07374 1-840, C824, C663, C59 and C207 partly linked through BM(PEG)2 to C136 of V21H4; C136 linked through BM(PEG)2 to a urease cysteine); experiment: ELISA on recombinant VEGFR2/Fc, absorbance at 405 nm
Chain of V21H4-DOS47 (V21H4, SEQ ID NO:6, conjugated to jack bean urease through BM(PEG)2) (VHH, as listed by the source limits assumed, chain 1 of 2): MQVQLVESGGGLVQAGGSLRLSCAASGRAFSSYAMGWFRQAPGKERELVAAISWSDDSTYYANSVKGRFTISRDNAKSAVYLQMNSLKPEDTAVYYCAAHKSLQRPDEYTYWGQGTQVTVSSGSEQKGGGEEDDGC
Chain of V21H4-DOS47 (V21H4, SEQ ID NO:6, conjugated to jack bean urease through BM(PEG)2) (P07374 whole entry, chain 2 of 2): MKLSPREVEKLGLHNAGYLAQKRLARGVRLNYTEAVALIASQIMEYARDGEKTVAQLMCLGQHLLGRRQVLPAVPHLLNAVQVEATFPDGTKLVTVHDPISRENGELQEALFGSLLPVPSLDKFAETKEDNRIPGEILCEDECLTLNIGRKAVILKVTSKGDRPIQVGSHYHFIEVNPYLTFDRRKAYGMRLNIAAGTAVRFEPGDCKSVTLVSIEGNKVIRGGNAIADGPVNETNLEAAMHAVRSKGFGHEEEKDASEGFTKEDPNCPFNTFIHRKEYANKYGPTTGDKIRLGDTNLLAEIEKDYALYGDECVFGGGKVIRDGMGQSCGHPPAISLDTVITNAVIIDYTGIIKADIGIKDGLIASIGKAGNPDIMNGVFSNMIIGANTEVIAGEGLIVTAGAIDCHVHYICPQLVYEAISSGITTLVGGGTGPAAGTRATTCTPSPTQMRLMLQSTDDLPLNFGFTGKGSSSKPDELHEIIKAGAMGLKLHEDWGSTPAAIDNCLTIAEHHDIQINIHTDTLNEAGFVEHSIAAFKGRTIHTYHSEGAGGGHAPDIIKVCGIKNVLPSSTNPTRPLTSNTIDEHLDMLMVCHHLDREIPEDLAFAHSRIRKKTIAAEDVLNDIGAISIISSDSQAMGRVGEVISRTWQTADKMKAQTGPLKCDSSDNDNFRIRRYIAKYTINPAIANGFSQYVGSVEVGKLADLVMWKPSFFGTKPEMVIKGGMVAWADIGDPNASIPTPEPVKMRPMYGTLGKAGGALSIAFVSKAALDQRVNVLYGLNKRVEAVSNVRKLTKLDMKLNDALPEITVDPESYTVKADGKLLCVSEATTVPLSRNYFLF

[9] = target: V21H1-DOS47 (V21H1, SEQ ID NO:3, conjugated to jack bean urease through SM(PEG)2) (jack bean (Canavalia ensiformis), UniProt P07374 1-840, surface cysteines linked through SM(PEG)2 to the antibody; primary amines linked through SM(PEG)2 to urease cysteines; K66 in CDR2 was about 25% of the activated antibody); experiment: as above
Chain of V21H1-DOS47 (V21H1, SEQ ID NO:3, conjugated to jack bean urease through SM(PEG)2) (VHH, as listed by the source limits assumed, chain 1 of 2): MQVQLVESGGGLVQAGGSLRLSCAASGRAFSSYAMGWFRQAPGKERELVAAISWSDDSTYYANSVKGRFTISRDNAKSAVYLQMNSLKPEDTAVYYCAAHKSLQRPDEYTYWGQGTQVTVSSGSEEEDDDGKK
Chain of V21H1-DOS47 (V21H1, SEQ ID NO:3, conjugated to jack bean urease through SM(PEG)2) (P07374 whole entry, chain 2 of 2): as the sequence (P07374 whole entry, chain 2 of 2) above

[10] = target: T3, AB1-(SEQ ID NO:9) DOS47 antibody-urease conjugate (jack bean (Canavalia ensiformis), UniProt P07374 1-840, cross-linked to the antibody; sites not stated; chemically cross-linked to urease; cross-linker and sites not stated for this conjugate); experiment: ELISA on VEGFR2/Fc captured by anti-human IgG-Fc, conjugate detected with anti-urease [panel AB1-DOS47]
T3 construct: Antibody-enzyme conjugate; also called AB1-DOS47
T3 sequence (VHH, as listed by the source limits assumed, chain 1 of 2): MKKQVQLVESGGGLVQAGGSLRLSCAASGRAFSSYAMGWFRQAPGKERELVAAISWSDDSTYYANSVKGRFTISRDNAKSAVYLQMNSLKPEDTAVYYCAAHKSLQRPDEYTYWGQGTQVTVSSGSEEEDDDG
T3 sequence (P07374 whole entry, chain 2 of 2): as the sequence (P07374 whole entry, chain 2 of 2) above

[11] = target: T4, AB2-(SEQ ID NO:13) DOS47 antibody-urease conjugate (jack bean (Canavalia ensiformis), UniProt P07374 1-840, cross-linked to the antibody; sites not stated; chemically cross-linked to urease; cross-linker and sites not stated for this conjugate); experiment: ELISA on VEGFR2/Fc captured by anti-human IgG-Fc, conjugate detected with anti-urease [panel AB2-DOS47]
T4 construct: Antibody-enzyme conjugate; also called AB2-DOS47
T4 sequence (VH, as listed by the source limits assumed, chain 1 of 2): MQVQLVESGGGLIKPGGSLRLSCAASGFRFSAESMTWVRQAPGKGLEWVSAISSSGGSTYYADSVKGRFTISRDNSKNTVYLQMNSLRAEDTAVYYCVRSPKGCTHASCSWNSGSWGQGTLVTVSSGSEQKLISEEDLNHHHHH
T4 sequence (P07374 whole entry, chain 2 of 2): as the sequence (P07374 whole entry, chain 2 of 2) above

[12] = target: T5, AB4-(SEQ ID NO:27) DOS47 antibody-urease conjugate (jack bean (Canavalia ensiformis), UniProt P07374 1-840, cross-linked to the antibody; sites not stated; chemically cross-linked to urease; cross-linker and sites not stated for this conjugate); experiment: ELISA on VEGFR2/Fc captured by anti-human IgG-Fc, conjugate detected with anti-urease [panel AB4-DOS47]
T5 construct: Antibody-enzyme conjugate; also called AB4-DOS47
T5 sequence (VHH, as listed by the source limits assumed, chain 1 of 2): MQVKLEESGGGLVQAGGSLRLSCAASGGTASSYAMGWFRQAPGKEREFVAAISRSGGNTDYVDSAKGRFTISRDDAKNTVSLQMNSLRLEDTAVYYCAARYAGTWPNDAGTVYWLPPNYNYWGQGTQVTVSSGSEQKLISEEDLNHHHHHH
T5 sequence (P07374 whole entry, chain 2 of 2): as the sequence (P07374 whole entry, chain 2 of 2) above

[13] = target: T6, V21H4-DOS47 with 1.4 antibodies per urease (jack bean (Canavalia ensiformis), UniProt P07374 1-840, surface cysteines partly linked through BM(PEG)2 to C136 of V21H4; C136 linked through BM(PEG)2 to a urease cysteine); experiment: ELISA on recombinant VEGFR2/Fc, absorbance at 405 nm, V21H4-DOS47 at different antibody/urease ratios
T6 construct: The conjugation ratio is an average value from SDS-PAGE
T6 sequence (P07374 whole entry, chain 2 of 2): as above

[14] = target: T7, V21H4-DOS47 with 2.3 antibodies per urease (jack bean (Canavalia ensiformis), UniProt P07374 1-840, surface cysteines partly linked through BM(PEG)2 to C136 of V21H4; C136 linked through BM(PEG)2 to a urease cysteine); experiment: as above
T7 construct: The conjugation ratio is an average value from SDS-PAGE
T7 sequence (P07374 whole entry, chain 2 of 2): as above

[15] = target: T8, V21H4-DOS47 with 3.3 antibodies per urease (jack bean (Canavalia ensiformis), UniProt P07374 1-840, surface cysteines partly linked through BM(PEG)2 to C136 of V21H4; C136 linked through BM(PEG)2 to a urease cysteine); experiment: as above
T8 construct: The conjugation ratio is an average value from SDS-PAGE
T8 sequence (P07374 whole entry, chain 2 of 2): as above

[16] = target: T9, V21H4-DOS47 with 9.4 antibodies per urease (jack bean (Canavalia ensiformis), UniProt P07374 1-840, surface cysteines partly linked through BM(PEG)2 to C136 of V21H4; C136 linked through BM(PEG)2 to a urease cysteine); experiment: as above
T9 construct: The conjugation ratio is an average value from SDS-PAGE
T9 sequence (P07374 whole entry, chain 2 of 2): as above

B1: AB2 with linker 2 (SEQ ID NO:13) (antibody, V domains shown)
VH: QVQLVESGGGLIKPGGSLRLSCAASGFRFSAESMTWVRQAPGKGLEWVSAISSSGGSTYYADSVKGRFTISRDNSKNTVYLQMNSLRAEDTAVYYCVRSPKGCTHASCSWNSGSWGQGTLVTVSS
notes: Single domain antibody on a human VH scaffold, from a human VH library, expressed in E. coli; also called VR2-801-18
binding result [1]: no binding (tested: 150˜200 nM) | Kd [2]: 500 nM | koff [2]: 0.02 s⁻¹ | kon [2]: 46000 M⁻¹ s⁻¹

B2: AB4 with linker 2 (SEQ ID NO:27) (VHH)
VHH: QVKLEESGGGLVQAGGSLRLSCAASGGTASSYAMGWFRQAPGKEREFVAAISRSGGNTDYVDSAKGRFTISRDDAKNTVSLQMNSLRLEDTAVYYCAARYAGTWPNDAGTVYWLPPNYNYWGQGTQVTVSS
notes: Llama single domain antibody expressed in E. coli; also called VR2-38
binding result [1]: no binding (tested: 150˜200 nM) | Kd [2]: 80 nM

B3: biotin-V21H4 (SEQ ID NO:6) (VHH)
VHH: QVQLVESGGGLVQAGGSLRLSCAASGRAFSSYAMGWFRQAPGKERELVAAISWSDDSTYYANSVKGRFTISRDNAKSAVYLQMNSLKPEDTAVYYCAAHKSLQRPDEYTYWGQGTQVTVSS
modifications: biotinylated (site not stated)
notes: The biotinylation method is not described; also called V21H4 antibody
EC50 [3]: 1.6 nM | EC50 (read off the curve) [4]: ~2 nM | EC50 (read off the curve) [5]: ~2 nM | EC50 [6]: 1.8 nM

B4: AB1 with linker 2 (SEQ ID NO:7) (VHH)
VHH: QVQLVESGGGLVQAGGSLRLSCAASGRAFSSYAMGWFRQAPGKERELVAAISWSDDSTYYANSVKGRFTISRDNAKSAVYLQMNSLKPEDTAVYYCAAHKSLQRPDEYTYWGQGTQVTVSS
notes: Llama single domain antibody expressed in E. coli BL21(DE3); The monomer fraction from Superdex 75 was used for SPR; also called VR2-21
binding result [1]: no binding (tested: 150˜200 nM) | Kd [7]: ~80 nM | koff [7]: < 0.01 s⁻¹ | kon [7]: ~60000 M⁻¹ s⁻¹

B5
binding result [8]: binds | binding result [9]: binds | binding result [10]: binds | binding result [11]: binds | binding result [12]: binds | binding result [13]: binds | binding result [14]: binds | binding result [15]: binds | binding result [16]: binds

B6: AB3 with linker 2 (SEQ ID NO:21) (antibody, V domains shown)
VH: QVQLVESGGGLIKPGGSLRLSCAASGDMLSYDVMSWVRQAPGKGLEWVSAISSSGGSTYYADSVKGRFTISRDNSKNTVYLQMNSLRAEDTAVYYCVAAPWRCTHDNCSKTRASWGQGTMVTVSS
notes: Single domain antibody on a human VH scaffold, expressed in E. coli; also called VR2-801-45
binding result [1]: no binding (tested: 150˜200 nM) | Kd [2]: 900 nM | koff [2]: 0.045 s⁻¹ | kon [2]: 53000 M⁻¹ s⁻¹
